According to patent publication US20070105771A1 (Y S THERAPEUTICS, published 2007):

Tests used:
Experiment in all cases: peptide microarray
[1] = molecular target: T1, human CD26-derived 13 mer peptide 124 (human)
T1 peptide: LIGDHYLCDVTWA
Procedure: (§1) The overnight incubation was followed by three washings with each of PBS buffer pH 7.5 and water. The microarrays were then scanned using ArrayWorx-Microarray Scanner.
(§2) The SPOT recognition software package ArrayPro was used for data analysis. The mean of signal intensities from 3 identical subarrays on each microarray image was used for data evaluation.

[2] = molecular target: T2, human CD26-derived 13 mer peptide 104 (human)
T2 peptide: VPYPKAGAVNPTV
Procedure: as §1, §2

[3] = molecular target: T3, human CD26-derived 13 mer peptide 131 (human)
T3 peptide: QERISLQWLRRIQ
Procedure: as §1, §2

[4] = molecular target: T4, human CD26-derived 13 mer peptide 6 (human)
T4 peptide: YSLRWISDHEYLY
Procedure: as §1, §2

[5] = molecular target: T5, human CD26-derived 13 mer peptide 44 (human)
T5 peptide: IYDLNKRQLITEE
Procedure: as §1, §2

[6] = molecular target: T6, human CD26-derived 13 mer peptide 132 (human)
T6 peptide: RISLQWLRRIQNY
Procedure: as §1, §2

[7] = molecular target: T7, human CD26-derived 13 mer peptide 34 (human)
T7 peptide: ILLEYNYVKQWRH
Procedure: as §1, §2

[8] = molecular target: T8, human CD26-derived 13 mer peptide 72 (human)
T8 peptide: KEDIIYNGITDWV
Procedure: as §1, §2

[9] = molecular target: T9, human CD26-derived 13 mer peptide 60 (human)
T9 peptide: YVWNNDIYVKIEP
Procedure: as §1, §2

[10] = molecular target: T10, human CD26-derived 13 mer peptide 40 (human)
T10 peptide: HSYTASYDIYDLN
Procedure: as §1, §2

[11] = molecular target: T11, human CD26-derived 13 mer peptide 120 (human)
T11 peptide: QITAPASMLIGDH
Procedure: as §1, §2

[12] = molecular target: T12, human CD26-derived 13 mer peptide 112 (human)
T12 peptide: VVNTDSLSSVTNA
Procedure: as §1, §2

[13] = molecular target: T13, human CD26-derived 13 mer peptide 49 (human)
T13 construct: also called TEERJPNNTQWVT
T13 peptide: TEERIPNNTQWVT
Procedure: as §1, §2

[14] = molecular target: T14, human CD26-derived 13 mer peptide 14 (human)
T14 peptide: NNILVFNAEYGNS
Procedure: as §1, §2

[15] = molecular target: T15, human CD26-derived 13 mer peptide 118 (human)
T15 peptide: ATSIQITAPASML
Procedure: as §1, §2

[16] = molecular target: T16, human CD26-derived 13 mer peptide 114 (human)
T16 peptide: DSLSSVTNATSIQ
Procedure: as §1, §2

[17] = molecular target: T17, human CD26-derived 13 mer peptide 78 (human)
T17 construct: also called VYEEEVFSAYSAL
T17 peptide: VYEEEVFSAYSAL
Procedure: as §1, §2

[18] = molecular target: T18, human CD26-derived 13 mer peptide 50 (human)
T18 peptide: ERIPNNTQWVTWS
Procedure: as §1, §2

[19] = molecular target: T19, human CD26-derived 13 mer peptide 93 (human)
T19 peptide: EVPLIEYSFYSDE
Procedure: as §1, §2

[20] = molecular target: T20, human CD26-derived 13 mer peptide 111 (human)
T20 peptide: FFVVNTDSLSSVT
Procedure: as §1, §2

[21] = molecular target: T21, human CD26-derived 13 mer peptide 79 (human)
T21 peptide: EEEVFSAYSALWW
Procedure: as §1, §2

[22] = molecular target: T22, human CD26-derived 13 mer peptide 56 (human)
T22 peptide: SPVGHKLAYVWNN
Procedure: as §1, §2

[23] = molecular target: T23, human CD26-derived 13 mer peptide 4 (human)
T23 peptide: RLKLYSLRWISDH
Procedure: as §1, §2

[24] = molecular target: T24, human CD26-derived 13 mer peptide 101 (human)
T24 peptide: YPKTVRVPYPKAG
Procedure: as §1, §2

[25] = molecular target: T25, human CD26-derived 13 mer peptide 30 (human)
T25 peptide: SISPDGQFILLEY
Procedure: as §1, §2

[26] = molecular target: T26, human CD26-derived 13 mer peptide 27 (human)
T26 peptide: HSINDYSISPDGQ
Procedure: as §1, §2

[27] = molecular target: T27, human CD26-derived 13 mer peptide 82 (human)
T27 peptide: AYSALWWSPNGTF
Procedure: as §1, §2

[28] = molecular target: T28, human CD26-derived 13 mer peptide 106 (human)
T28 peptide: KAGAVNPTVKFFV
Procedure: as §1, §2

[29] = molecular target: T29, human CD26-derived 13 mer peptide 63 (human)
T29 peptide: IYVKIEPNLPSYR
Procedure: as §1, §2

[30] = molecular target: T30, human CD26-derived 13 mer peptide 62 (human)
T30 peptide: NDIYVKIEPNLPS
Procedure: as §1, §2

[31] = molecular target: T31, human CD26-derived 13 mer peptide 54 (human)
T31 peptide: WVTWSPVGHKLAY
Procedure: as §1, §2

[32] = molecular target: T32, human CD26-derived 13 mer peptide 97 (human)
T32 peptide: FYSDESLQYPKTV
Procedure: as §1, §2

[33] = molecular target: T33, human CD26-derived 13 mer peptide 68 (human)
T33 peptide: SYRITWTGKEDII
Procedure: as §1, §2

[34] = molecular target: T34, human CD26-derived 13 mer peptide 61 (human)
T34 peptide: WNNDIYVKIEPNL
Procedure: as §1, §2

[35] = molecular target: T35, human CD26-derived 13 mer peptide 76 (human)
T35 peptide: ITDWVYEEEVFSA
Procedure: as §1, §2

[36] = molecular target: T36, human CD26-derived 13 mer peptide 53 (human)
T36 peptide: TQWVTWSPVGHKL
Procedure: as §1, §2

[37] = molecular target: T37, human CD26-derived 13 mer peptide 92 (human)
T37 peptide: DTEVPLIEYSFYS
Procedure: as §1, §2

[38] = molecular target: T38, human CD26-derived 13 mer peptide 119 (human)
T38 peptide: SIQITAPASMLIG
Procedure: as §1, §2

[39] = molecular target: T39, human CD26-derived 13 mer peptide 28 (human)
T39 peptide: INDYSISPDGQFI
Procedure: as §1, §2

[40] = molecular target: T40, human CD26-derived 13 mer peptide 108 (human)
T40 peptide: VNPTVKFFVVNTD
Procedure: as §1, §2

[41] = molecular target: T41, human CD26-derived 13 mer peptide 70 (human)
T41 peptide: TWTGKEDIIYNGI
Procedure: as §1, §2

[42] = molecular target: T42, human CD26-derived 13 mer peptide 117 (human)
T42 peptide: TNATSIQITAPAS
Procedure: as §1, §2

Mean Signal Value [1]: 12.7
Mean Signal Value [2]: 0.00481
Mean Signal Value [3]: 5.25
Mean Signal Value [4]: 97.5
Mean Signal Value [5]: 0
Mean Signal Value [6]: 113
Mean Signal Value [7]: 15.7
Mean Signal Value [8]: 10.1
Mean Signal Value [9]: 0.0769
Mean Signal Value [10]: 32.2
Mean Signal Value [11]: 0.0337
Mean Signal Value [12]: 0
Mean Signal Value [13]: 0.962
Mean Signal Value [14]: 0.00962
Mean Signal Value [15]: 0
Mean Signal Value [16]: 0.00481
Mean Signal Value [17]: 7.86
Mean Signal Value [18]: 34.6
Mean Signal Value [19]: 0.269
Mean Signal Value [20]: 0
Mean Signal Value [21]: 96.4
Mean Signal Value [22]: 11.7
Mean Signal Value [23]: 51.3
Mean Signal Value [24]: 0.00481
Mean Signal Value [25]: 6.26
Mean Signal Value [26]: 0.00481
Mean Signal Value [27]: 67.8
Mean Signal Value [28]: 0.245
Mean Signal Value [29]: 8.12
Mean Signal Value [30]: 0.00481
Mean Signal Value [31]: 13
Mean Signal Value [32]: 0.0144
Mean Signal Value [33]: 0
Mean Signal Value [34]: 0.0385
Mean Signal Value [35]: 0.0337
Mean Signal Value [36]: 0.00481
Mean Signal Value [37]: 11.9
Mean Signal Value [38]: 0.024
Mean Signal Value [39]: 0.221
Mean Signal Value [40]: 1.33
Mean Signal Value [41]: 1
Mean Signal Value [42]: 0.00962
B1: rhuMAb 411 (antibody, human IgG1, kappa, V domains shown)
VH: EVQLVESGAGVKQPGGTLRLTCTASGFSLTTYGVHWVRQAPGKGLEWVGVIWGDGRTDYDAAFMSRVTISKDTSKSTVYLQMNSLRAEDTAVYYCMRNRHDWFDYWGQGTTVTVSS
VL: DILLTQSPSSLSATPGERATITCRASQGIRNNLNWYQQKPGQAPRLLIYYSSNLQSGVPSRFSGSGSGTDFTLTISRLQPEDVAAYYCQQSIKLPFTFGSGTKVEIKR
notes: also called X411
